Data reported in patent US6284879A, “Transport associated protein splice variants” (The General Hospital Corporation, priority 1998, dated 2001).

How the values were obtained:
[1] = tested on: HLA class I (A2) on T2 cells; assay: restoration of surface expression of HLA class I (A2) on transfected T2 cells, flow cytometry; assay type: cell-based, human; conditions: T2 cells transfected with the named cDNAs
Experimental: Plasmid DNAs were prepared using MAXI-PREP kits (Qiagen). TAP1- and TAP2-deficient T2 cells (donated by P. Cresswell, Howard Hughes Medical Institute, Yale University) (1-2×10^7 cells/ml) were transfected by electroporation with 10 μg of TAP1 and TAP2 or TAP2iso linear plasmid DNA in a 0.4-cm cuvette at 260 V and 960 μF. Subcloning and selection of transfectants were performed by culturing in the presence of hygromycin (250 μg/ml) or histidinol ([…]) for the PREP 4 and PREP8 vectors, respectively.
Immune complexes were detected with fluorescein isothiocyanate-conjugated goat anti-mouse IgG antibodies (Coulter, Hialeah, Fla.) and an Epics Elite flow cytometer (Coulter).
T2 cells were transfected with TAP1 cDNA in combination with TAP2 or TAPiso cDNAs as described above.

[2] = tested on: HLA class I molecules in T2 cells; assay: HLA class I maturation, endo H sensitivity, pulse-chase in transfected T2 cells; assay type: cell-based, human; conditions: expressed with TAP1 in T2 cells, relative to untransfected T2 cells
Excerpt: A preferred method of measuring the rate at which MHC class I antigen complexes exit the ER is through the quantification of MHC class I proteins of the Golgi apparatus sensitive to endoglycosidase H (endo H). Glycosylation of MHC class I proteins in the Golgi apparatus results in an increase in their molecular mass and an increase in resistance of MHC class I-linked glycans to endo H. By [^35 S]methionine pulse-labeling TAP- or TAPiso-expressing cell cultures and chasing with unlabeled methionine at various times, the rate of MHC class I maturation in the ER can be gauged by observing differences in endo H sensitivity, e.g., compared with a TAP-deficient cell line such as T2.
High density cells (1×10^8 cells/ml) were labeled for 15 minutes in the presence of 500 μCi [^35 S]methionine (Amersham), and then chased at the indicated times in the presence of 10 mM unlabeled methionine.
Cells were lysed in an ice-cold lysis buffer, and lysates were incubated overnight at 4° C. with protein A Sepharose beads (Pharmacia) and normal rabbit serum (1:200 dilution). The beads were removed by centrifugation and the resulting supernatant was incubated for 12 hours at 4° C. with protein A beads and monoclonal antibody W6/32 (American Type Culture Collection (ATCC) accession no. HB 95), which recognizes HLA class I molecules. […]

Row | Molecule | Mean fluorescence of HLA class 1 (A2) Mean ± SD ([1]; four separate experiments, at least three stable clones) | HLA class I maturation as reflected in decreasing endo H sensitivity [2] | surface expression of HLA/MHC class I ([1]; in words)
1 | TAP2: previously known TAP2 subunit (clone 0121, TAP2 F allele) (protein) MRLPDLRPWTSLLLVDAALLWLLQGPLGTLLPQGLPGLWLEGTLRLGGLWGLLKLRGLLGFVGTLLLPLCLATPLTVSLRALVAGASRAPPARVASAPWSWLLVGYGAAGLSWSLWAVLSPPGAQEKEQDQVNNKVLMWRLLKLSRPDLPLLVAAFFFLVLAVLGETLIPHYSGRVIDILGGDFDPHAFASAIFFMCLFSFGSSLSAGCRGGCFTYTMSRINLRIREQLFSSLLRQDLGFFQETKTGELNSRLSSDTTLMSNWLPLNANVLLRSLVKVVGLYGFMLSISPRLTLLSLLHMPFTIAAEKVYNTRHQEVLREIQDAVARAGQVVREAVGGLQTVRSFGAEEHEVCRYKEAKEQCRQLYWRRDLERALYLLIRRVLHLGVQMLMLSCGLQQMQDGELTQGSLLSFMIYQESVGSYVQTLVYIYGDMLSNVGAAEKVFSYMDRQPNLPSPGTLAPTTLQGVVKFQDVSFAYPNRPDRPVLKGLTFTLRPGEVTALVGPNGSGKSTVAALLQNLYQPTGGQVLLDEKPISQYEHCYLHSQVVSVGQEPVLFSGSVRNNIAYGLQSCEDDKVMAAAQAAHADDFIQEMEHGIYTDVGEKGSQLAAGQKQRLAIARALVRDPRVLILDEATSALDVQCEQALQDWNSRGDRTVLVIAHRLQTVQRAHQILVLQEGKLQKLAQL | 6.11 ± 1.09 | increasing HLA class I maturation | 
2 | TAP2iso: TAP2 splice variant lacking exon 11 and containing exon 12; 653 amino acids (protein) MRLPDLRPWTSLLLVDAALLWLLQGPLGTLLPQGLPGLWLEGTLRLGGLWGLLKLRGLLGFVGTLLLPLCLATPLTVSLRALVAGASRAPPARVASAPWSWLLVGYGAAGLSWSLWAVLSPPGAQEKEQDQVNNKVLMWRLLKLSRPDLPLLVAAFFFLVLAVLGETLIPHYSGRVIDILGGDFDPHAFASAIFFMCLFSFGSSLSAGCRGGCFTYTMSRINLRIREQLFSSLLRQDLGFFQETKTGELNSRLSSDTTLMSNWLPLNANVLLRSLVKVVGLYGFMLSISPRLTLLSLLHMPFTIAAEKVYNTRHQEVLREIQDAVARAGQVVREAVGGLQTVRSFGAEEHEVCRYKEAKEQCRQLYWRRDLERALYLLIRRVLHLGVQMLMLSCGLQQMQDGELTQGSLLSFMIYQESVGSYVQTLVYIYGDMLSNVGAAEKVFSYMDRQPNLPSPGTLAPTTLQGVVKFQDVSFAYPNRPDRPVLKGLTFTLRPGEVTALVGPNGSGKSTVAALLQNLYQPTGGQVLLDEKPISQYEHCYLHSQVVSVGQEPVLFSGSVRNNIAYGLQSCEDDKVMAAAQAAHADDFIQEMEHGIYTDVGEKGSQLAAGQKQRLAIARALVRDPRVLILDEATSALDVQCEQAKTLWKFMIF |  | increasing HLA class I maturation | no effect
